Laboratory results reported in patent US20120135931A1.

B1: MH22 (peptide)
peptide: MHKTAPPFDFEAIPEEYLDDES
modifications: not checked
B2: MH18 (peptide)
peptide: MHKTAPPFDFEAIPEEYL
modifications: not checked

Legend:
[1] = system: s-variegin
[2] = target: human plasma derived thrombin (human), P00734; assay: cell-based or functional assay

Molecule | cleavage of s-variegin by thrombin at 24° C. (RP-HPLC), extent at 360 min [1] | percent inhibition of thrombin amidolytic activity at equimolar concentration [2] [%]
recombinant α-thrombin (based on human α-thrombin sequence) | 360 min was needed for ~90% of cleavage | 
B1 |  | 15
B2 |  | 15
